Laboratory results: US20140046032A1 (Sanofi, published 2014)

T1: recombinant murine FcγRI (murine, UniProt P26151 25-297)
T1 construct: Bought
T1 sequence (looked up): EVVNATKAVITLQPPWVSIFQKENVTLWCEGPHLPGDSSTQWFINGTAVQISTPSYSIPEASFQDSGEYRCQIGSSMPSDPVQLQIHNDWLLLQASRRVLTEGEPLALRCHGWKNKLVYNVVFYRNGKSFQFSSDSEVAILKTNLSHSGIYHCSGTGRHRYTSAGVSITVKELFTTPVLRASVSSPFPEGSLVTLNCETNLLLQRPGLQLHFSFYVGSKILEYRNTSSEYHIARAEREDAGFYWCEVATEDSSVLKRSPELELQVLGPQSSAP

T2: recombinant murine FcγRIV (murine, UniProt A0A0B4J1G0 21-203)
T2 construct: Bought
T2 sequence: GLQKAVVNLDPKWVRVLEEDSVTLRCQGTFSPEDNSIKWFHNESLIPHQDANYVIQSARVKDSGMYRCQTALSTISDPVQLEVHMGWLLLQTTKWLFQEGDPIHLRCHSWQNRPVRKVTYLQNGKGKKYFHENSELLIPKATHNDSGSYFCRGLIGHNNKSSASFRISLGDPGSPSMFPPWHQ

T3: recombinant murine FcγRIIb (murine, UniProt P08101 30-207, limits assumed)
T3 construct: Bought
T3 sequence (looked up): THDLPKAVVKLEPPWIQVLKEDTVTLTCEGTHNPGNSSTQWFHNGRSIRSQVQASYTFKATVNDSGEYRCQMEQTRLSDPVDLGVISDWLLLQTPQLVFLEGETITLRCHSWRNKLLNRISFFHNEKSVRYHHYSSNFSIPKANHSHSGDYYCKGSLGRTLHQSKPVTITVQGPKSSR

T4: recombinant murine FcγRIII (murine, UniProt P08508 31-215)
T4 construct: Bought
T4 sequence (looked up): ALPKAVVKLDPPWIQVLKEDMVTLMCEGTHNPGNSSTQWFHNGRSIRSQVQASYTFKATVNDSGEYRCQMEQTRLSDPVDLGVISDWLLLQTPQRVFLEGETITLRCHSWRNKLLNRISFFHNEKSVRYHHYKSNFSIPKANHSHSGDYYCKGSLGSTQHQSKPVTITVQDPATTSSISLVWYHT

B1: α-2,6 sialylated antiAbeta-13C3_D257A mAb (co-expressed with SIAT1 and B4GT1) (antibody, mouse IgG1, kappa)
heavy: QVQLQQSGPELVRPGVSVKISCKGSGYTFTDYAMHWVKQSHAKSLEWIGVISTKYGKTNYNQKFKGKATMTVDKSSSTAYMELARLTSEDSAIYYCARGDDGYSWGQGTSVTVSSAKTTPPSVYPLAPGSAAQTNSMVTLGCLVKGYFPEPVTVTWNSGSLSSGVHTFPAVLQSDLYTLSSSVTVPSSTWPSETVTCNVAHPASSTKVDKKIVPRDCGCKPCICTVPEVSSVFIFPPKPKDVLTITLTPKVTCVVVAISKDDPEVQFSWFVDDVEVHTAQTQPREEQFNSTFRSVSELPIMHQDWLNGKEFKCRVNSAAFPAPIEKTISKTKGRPKAPQVYTIPPPKEQMAKDKVSLTCMITDFFPEDITVEWQWNGQPAENYKNTQPIMDTDGSYFVYSKLNVQKSNWEAGNTFTCSVLHEGLHNHHTEKSLSHSPG
light: DVVMTQTPLSLPVSLGDQASISCRSGQSLVHSNGNTYLHWYLQKPGQSPKLLIYTVSNRFSGVPDRFSGSGSGSDFTLKISRVEAEDLGVYFCSQNTFVPWTFGGGTKLEIKRADAAPTVSIFPPSSEQLTSGGASVVCFLNNFYPKDINVKWKIDGSERQNGVLNSWTDQDSKDSTYSMSSTLTLTKDEYERHNSYTCEATHKTSTSPIVKSFNRNEC
modifications: Fc N-glycan essentially α-2,6-sialylated, G2F/G2F + 4 NeuNAc per mAb (very high sialic acid content)
notes: Small-scale batch LP10094, large-scale batch LP10104 and a CHO-produced batch are treated as this one molecule; also called antiAbeta_13C3_D257A batch LP10104; batch LP10094
B2: antiAbeta_13C3_D257A mAb produced without co-expression of SIAT1 and B4GT1 (batch LP10116, low sialic acid content) (antibody, mouse IgG1, kappa)
heavy: QVQLQQSGPELVRPGVSVKISCKGSGYTFTDYAMHWVKQSHAKSLEWIGVISTKYGKTNYNQKFKGKATMTVDKSSSTAYMELARLTSEDSAIYYCARGDDGYSWGQGTSVTVSSAKTTPPSVYPLAPGSAAQTNSMVTLGCLVKGYFPEPVTVTWNSGSLSSGVHTFPAVLQSDLYTLSSSVTVPSSTWPSETVTCNVAHPASSTKVDKKIVPRDCGCKPCICTVPEVSSVFIFPPKPKDVLTITLTPKVTCVVVAISKDDPEVQFSWFVDDVEVHTAQTQPREEQFNSTFRSVSELPIMHQDWLNGKEFKCRVNSAAFPAPIEKTISKTKGRPKAPQVYTIPPPKEQMAKDKVSLTCMITDFFPEDITVEWQWNGQPAENYKNTQPIMDTDGSYFVYSKLNVQKSNWEAGNTFTCSVLHEGLHNHHTEKSLSHSPG
light: DVVMTQTPLSLPVSLGDQASISCRSGQSLVHSNGNTYLHWYLQKPGQSPKLLIYTVSNRFSGVPDRFSGSGSGSDFTLKISRVEAEDLGVYFCSQNTFVPWTFGGGTKLEIKRADAAPTVSIFPPSSEQLTSGGASVVCFLNNFYPKDINVKWKIDGSERQNGVLNSWTDQDSKDSTYSMSSTLTLTKDEYERHNSYTCEATHKTSTSPIVKSFNRNEC
modifications: Fc N-glycan G0F/G0F, low sialic acid content
notes: also called low sialylated antiAbeta-13C3_D257A
B3: antiAbeta_13C3 mAb (murine, batch LP09009, low sialic acid content) (antibody, mouse IgG1, kappa)
heavy: QVQLQQSGPELVRPGVSVKISCKGSGYTFTDYAMHWVKQSHAKSLEWIGVISTKYGKTNYNQKFKGKATMTVDKSSSTAYMELARLTSEDSAIYYCARGDDGYSWGQGTSVTVSSAKTTPPSVYPLAPGSAAQTNSMVTLGCLVKGYFPEPVTVTWNSGSLSSGVHTFPAVLQSDLYTLSSSVTVPSSTWPSETVTCNVAHPASSTKVDKKIVPRDCGCKPCICTVPEVSSVFIFPPKPKDVLTITLTPKVTCVVVDISKDDPEVQFSWFVDDVEVHTAQTQPREEQFNSTFRSVSELPIMHQDWLNGKEFKCRVNSAAFPAPIEKTISKTKGRPKAPQVYTIPPPKEQMAKDKVSLTCMITDFFPEDITVEWQWNGQPAENYKNTQPIMDTDGSYFVYSKLNVQKSNWEAGNTFTCSVLHEGLHNHHTEKSLSHSPG
light: DVVMTQTPLSLPVSLGDQASISCRSGQSLVHSNGNTYLHWYLQKPGQSPKLLIYTVSNRFSGVPDRFSGSGSGSDFTLKISRVEAEDLGVYFCSQNTFVPWTFGGGTKLEIKRADAAPTVSIFPPSSEQLTSGGASVVCFLNNFYPKDINVKWKIDGSERQNGVLNSWTDQDSKDSTYSMSSTLTLTKDEYERHNSYTCEATHKTSTSPIVKSFNRNEC
modifications: Fc N-glycan with low sialic acid content
notes: Murine IgG1 heavy chain, murine Ckappa light chain; also called antiAbeta-13C13 mAb; original antiAbeta-13C3

Columns and labels:
[1] = biological target: lectin Maackia amurensis (MAA) (Maackia amurensis); experiment: enzyme-linked lectin assay (ELLA) with Maackia amurensis lectin (MAA, α-2,3 sialic acid); signal against µg of mAb, linear axis
Sequence of lectin Maackia amurensis (MAA) (Maackia amurensis) (P0DKL3 30-278): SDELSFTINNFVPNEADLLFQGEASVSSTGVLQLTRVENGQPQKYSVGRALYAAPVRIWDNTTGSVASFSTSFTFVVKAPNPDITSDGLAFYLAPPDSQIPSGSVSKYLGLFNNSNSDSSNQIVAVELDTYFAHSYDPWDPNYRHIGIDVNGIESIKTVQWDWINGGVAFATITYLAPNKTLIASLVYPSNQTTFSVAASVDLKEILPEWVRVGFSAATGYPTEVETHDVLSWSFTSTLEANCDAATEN

recombinant murine FcγRI = biological target: T1, recombinant murine FcγRI; experiment: SPR, Biacore 3000
[2] = biological target: T2, recombinant murine FcγRIV; experiment: SPR, Biacore 3000
[3] = biological target: T3, recombinant murine FcγRIIb; experiment: SPR, Biacore 3000
[4] = biological target: T4, recombinant murine FcγRIII; experiment: SPR, Biacore 3000

Molecule	EC50 (read off the curve) [1] [µg]	binding result (recombinant murine FcγRI)	binding result [2]	Kd [3] [µM]	Kd [4] [µM]
fetuin	0.2	–	–	–	–
B1	–	no binding	no binding	–	–
B2	–	no binding	no binding	–	–
B3	–	no binding	no binding	0.354	0.471
